Data from the Human Domainome abundance scans (Beltran et al. 2025).

B1: Tripartite motif-containing protein 49C, residues 87 to 133; numbered along this chain, P0CI26 (parent)
chain: SSEEQMCGTHRETKKIFCEVDRSLLCLLCSSSQEHRYHRHRPIEWAA
B2: Tyrosine-protein kinase BTK, residues 215 to 273; numbered along this chain, Q06187 (parent)
chain: ELKKVVALYDYMPMNANDLQLRKGDEYFILEESNLPWWRARDKNGQEGYIPSNYVTEAE

Variants of: B1
Test: abundance fitness (aPCA) (normalised: wild type 0, dead -1); higher = more abundant; growth selection in yeast, the domain comes from the species named
Settings: Homo sapiens

Abundance fitness, by site and new letter:
C18: Y -0.801 | N -0.286 | L -1.09 | R -0.736
F17: T -0.443 | Y -0.205 | H -0.598 | S -0.755 | L -0.081 | D -0.726 | V -0.328
S31: K -0.286 | A -0.048 | M -0.408 | R -0.017
H35: D -0.821 | Y -1.06 | L -1.08 | R -0.799 | K -0.929
I16: W -0.28 | S -0.439 | K -0.197 | V -0.129
L27: A 0.111 | R 0.149 | G 0.145 | N 0.271 | P 0.132
H10: N -0.836 | Y -0.855 | I -1 | M -1.06 | Q -0.757
S2: K -0.114
R41: D 0.496 | V -0.607 | C -0.609 | P -0.364 | W -0.413 | E -0.197 | S 0.011
K14: C -0.222 | H -0.738 | E -0.173 | Q -0.328 | D -0.303 | T -0.644
D21: T 0.061 | N -0.01 | S -0.023 | H -0.267 | F -0.562 | C 0.149
E4: V -0.093 | R -0.252 | H -0.351 | M 0.015 | W -0.577
T13: H 0.006 | C -0.22 | G -0.196 | F -0.232 | A 0.168
E34: C -0.514 | K -0.246 | Q -0.41 | V -0.492
H38: R -0.591 | K -0.607 | E -0.33 | C -0.836
R36: S -0.197 | I -0.217 | M -0.301 | F -0.607 | Y -0.701 | A 0.037 | P -0.535
H40: I -0.893 | P -0.767 | F -0.709 | C -0.623 | Q -0.129
W45: H 0.361 | Q 0.224 | F 0.153 | S 0.292
A47: C -0.591 | R 0.04
L25: A -0.639 | C -0.208 | W -0.962
L28: D -0.17 | E 0.189
S30: E -0.165 | M -0.176 | R -0.697 | W -0.615
E3: G -0.147 | Y -0.592 | P -0.172 | W -0.156 | C 0.068
Y37: V -0.243 | N 0.226 | T 0.051 | A 0.181 | Q 0.155 | L 0.127
R11: P -0.441 | V -0.502 | N -0.049 | S -0.185 | L -0.418 | E -0.683 | H 0.154
E44: I -0.359 | V -0.603 | A -0.411 | Y -0.652 | K -0.298 | H -0.738 | P -0.449 | G -0.181 | L -0.52 | F -0.82 | C -0.525
E12: Q 0.066 | I -0.341 | R 0.021
S1: T -0.496 | V -0.121
R22: F -0.772 | A -0.267 | K 0.22 | N 0.019
G8: L -0.009 | C -0.017 | H -0.468 | Y -0.082 | N -0.159
K15: P -0.79 | G -0.265 | Q -0.264 | M -0.578
R39: W -0.314 | T 0.02 | H -0.131 | C -0.375 | M -0.155 | I 0.162 | N 0.363 | S 0.083
M6: T -0.414 | H -0.215
Q33: I 0.694 | L -0.012
L24: H -0.298 | K -0.403
A46: M -0.008 | D 0.09 | N -0.124 | F -0.184 | G 0.056 | R -0.249
C26: Q -0.776 | W -1.09 | M -1.08 | F -0.901 | V -1.1
C29: V -0.959
Q5: M 0.054 | C -0.643 | E -0.609 | T -0.345 | N -0.337 | A -0.358 | H -0.315
T9: N -0.417 | I -0.074 | Y -0.183
V20: H -0.033 | G -0.485 | M -0.007
E19: R -0.602 | C -0.255 | P -0.026
C7: R -0.513 | P -0.598
S32: I -0.947 | E -0.364 | D -0.041 | T -0.278
I43: F 0.594 | R -0.385 | G -0.215
P42: N -0.103 | W -0.671 | M -0.366 | T -0.065 | S -0.122
S23: R 0.058 | P -0.686 | G -0.31 | I -0.007 | V -0.132 | N -0.835

Variants of: B2
Test: as above
Settings: Homo sapiens

Abundance fitness of substitutions, site by site:
L2: R -0.075 | Y -0.036 | A -0.093 | N 0.012 | F 0.011 | V -0.116 | W -0.088 | Q -0.013 | M -0.055 | C -0.177 | G -0.018 | K -0.095 | T -0.161 | S -0.075 | I -0.089 | E -0.126 | H -0.167 | P -0.136
K4: A -0.168 | D -0.287 | H -0.322 | C -0.225 | G -0.357 | L -0.089 | M -0.133 | W -0.334 | I -0.033 | R -0.072 | Y -0.285 | S -0.1 | Q -0.088 | P -0.15 | E -0.135 | T -0.036 | N -0.339 | V -0.079
L8: F -0.222 | A -0.124 | C -0.04 | E -0.094 | G -0.338 | D -0.137
E1: R -0.15 | F -0.094 | K -0.035 | W -0.088 | T -0.288 | N -0.012 | D -0.103 | Q -0.121 | L -0.074 | V -0.074 | P -0.305 | A -0.172 | Y -0.062 | H -0.174 | I -0.106 | C -0.252
A7: I -0.966 | W -1.03 | T -0.801 | L -1 | M -0.837 | S -0.142 | D -0.909 | P -0.654 | F -0.599 | G -0.364 | H -0.804 | E -0.813 | Y -1.06 | N -1.11 | V -0.681 | Q -0.828 | K -0.955 | R -1.04 | C -0.203
V5: G -0.425 | S -0.404 | K -0.288 | N -0.839 | Y -0.113 | H -0.335 | P -0.755 | L -0.244 | C -0.213 | I -0.189 | T -0.323 | F -0.052 | E -0.708 | M -0.134 | Q -0.329
V6: T -0.017 | F -0.073 | I -0.028 | L -0.052 | P -0.796 | M -0.1 | Q -0.025 | R -0.093 | W -0.067 | G -0.636 | K -0.023 | H -0.154 | C -0.103 | E -0.135 | S -0.19
K3: N -0.112 | P -0.234 | A -0.225 | Y -0.205 | W -0.253 | V -0.107 | C -0.223 | H -0.224 | G -0.227 | R -0.065 | E -0.309 | Q -0.293 | I -0.257 | D -0.22 | T -0.117 | S -0.135 | M 0 | L -0.102 | F -0.038
